Assay results: US20030114404, “Vascular endothelial growth factor (VEGF) nucleic acid ligand complexes” (Gilead Sciences, Inc., published 2003)

Legend:
VEGF165 [1] = biological target: T1, VEGF165 (Homo sapiens, UniProt P15692-4 P15692-4:27-191); assay: filter; 37 C; variable region ends GGCT in table, GGGU in listing; details: tags: carrier-free, Sf 21 insect cell expressed, R & D Systems; chain copies: 2 (inferred)
Protocol: (§1) Nucleic Acid Ligands radiolabeled during transcription by incorporation of α-[³²P]-labeled NTPs, or after synthesis using γ-[³²P]-ATP and T4 polynucleotide kinase, were incubated in low concentration (between 20 and 70 pM) with varying concentrations of VEGF or other growth factors at 37° C. for 15 minutes. Incubations were in TBS, PBS, or HEPES-buffered saline (HBS), pH 7.4, with or without the addition of supplemental divalent cations. Samples were passed through prewashed 0.45 μ Type HA filters (Millipore) followed by a 5-10 ml wash with binding buffer. Filters were immersed in scintillant and counted to quantitate the amount of protein-bound RNA retained by each filter. The equilibrium dissociation constant (KD) of Nucleic Acid Ligand binding to a specific protein was calculated from the data points as described in Green et al. (1996) Biochem. 35: 14413-14424.

VEGF121 = VEGF121 (Homo sapiens, UniProt P15692-9 P15692-9:27-147); assay: filter; no measurable affinity; details: tags: carrier-free, E. coli expressed, R & D Systems; chain copies: 2 (inferred)
VEGF165 [2] = biological target: T1, VEGF165; assay: filter; s.d. 36; 37 C; divalent cation independent; details: tags: carrier-free, Sf 21 insect cell expressed, R & D Systems; chain copies: 2 (inferred)
Protocol: as §1
(§2) 2′OH nucleotides are indicated in bold, and 2′OMe nucleotides are indicated in plain text.

PlGF = biological target: T2, PlGF (UniProt P49763-2 P49763-2:19-149); assay: filter; no binding to PlGF homodimer; details: tags: carrier-free, E. coli expressed, R & D Systems; chain copies: 2 (stated homodimer)
T2 sequence: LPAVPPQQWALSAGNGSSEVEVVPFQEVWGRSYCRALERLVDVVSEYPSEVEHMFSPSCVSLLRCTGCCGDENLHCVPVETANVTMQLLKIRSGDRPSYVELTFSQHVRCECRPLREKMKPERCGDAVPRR
Protocol: as §1
VEGF is a highly conserved protein across species, the human VEGF₁₆₅ and mouse VEGF₁₆₄ isoforms showing 88% sequence identity. The truncated, 2′-OMe-substituted ligands bound equally well to human and murine VEGF. […] Heterodimers between VEGF and PIGF have recently been isolated from the supernatants of both normal and tumor-derived cell lines, and such heterodimers show activity in binding to one of two high affinity VEGF receptors and in inducing responses in cultured endothelial cells. The biological relevance of VEGF/PIGF heterodimers is unknown. […] Alternatively, the structure of the VEGF subunit may be altered by participation in a heterodimer with PIGF with consequent distortion of the Nucleic Acid Ligand binding surface.

VEGF165 [3] = biological target: T1, VEGF165; assay: filter; s.d. 50; 37 C; divalent cation independent; details: tags: carrier-free, Sf 21 insect cell expressed, R & D Systems; chain copies: 2 (inferred)
Protocol: as §1, §2

VEGF165 [4] = biological target: T1, VEGF165; assay: filter; divalent cations replaced with EGTA; CaCl2 restores binding, MgCl2 does not; details: tags: carrier-free, Sf 21 insect cell expressed, R & D Systems; chain copies: 2 (inferred)
Protocol: as §1
Ligands in Families 1 and 2 were selected in the presence of magnesium cations while Family 3 ligands were selected in a buffer containing both magnesium and calcium. Since divalent cations may contribute to RNA/protein interactions through nonspecific or specific stabilization of high affinity RNA structures, we asked whether magnesium and/or calcium were required for the high affinity binding of representative ligands to VEGF.

VEGF165 [5] = biological target: T1, VEGF165; assay: filter; s.d. 11; text gives 49 pM; 37 C; calcium required; details: tags: carrier-free, Sf 21 insect cell expressed, R & D Systems; chain copies: 2 (inferred)
Protocol: as §1, §2

VEGF164 [6] = biological target: T3, VEGF164 (Mus musculus, UniProt Q00731-2 Q00731-2:27-190); assay: filter; binds equally well to human and murine VEGF; details: tags: carrier-free, Sf 21 insect cell expressed, R & D Systems; chain copies: 2 (inferred)
T3 sequence: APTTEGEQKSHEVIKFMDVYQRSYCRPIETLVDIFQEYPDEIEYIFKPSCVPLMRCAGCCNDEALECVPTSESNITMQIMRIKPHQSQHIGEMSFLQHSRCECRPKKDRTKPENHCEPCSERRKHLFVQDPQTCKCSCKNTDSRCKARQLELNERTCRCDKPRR
Protocol: as §1
(§3) VEGF is a highly conserved protein across species, the human VEGF₁₆₅ and mouse VEGF₁₆₄ isoforms showing 88% sequence identity. The truncated, 2′-OMe-substituted ligands bound equally well to human and murine VEGF. […] Heterodimers between VEGF and PIGF have recently been isolated from the supernatants of both normal and tumor-derived cell lines, and such heterodimers show activity in binding to one of two high affinity VEGF receptors and in inducing responses in cultured endothelial cells. […]

VEGF165 [7] = biological target: T1, VEGF165; assay: filter; 37 C; variable region starts CCCC in table, CGCC in listing; details: tags: carrier-free, Sf 21 insect cell expressed, R & D Systems; chain copies: 2 (inferred)
Protocol: as §1

VEGF164 [8] = biological target: T3, VEGF164; assay: filter; bound equally well to human and murine VEGF; details: tags: carrier-free, Sf21-expressed, R&D Systems; chain copies: 2
Protocol: as §1, §3

Sequence of VEGF121 (P15692 other isoform, or with tags, fused parts or gaps): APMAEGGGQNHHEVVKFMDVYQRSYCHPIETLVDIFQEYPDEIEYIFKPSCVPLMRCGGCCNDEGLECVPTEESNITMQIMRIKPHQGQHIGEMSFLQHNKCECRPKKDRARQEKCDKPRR

B1: VP40.39 (ssRNA)
RNA: GGGAGGACGAUGCGGCAGUUAAUUAACUUGAGUUGUGAUGUGUGUCGUUAUGGGUCAGACGACUCGCCCGA
modifications: 2'-F pyrimidines
**Q.** For B1, which Kd (VEGF165 [1]) is on record?
**A.** 73 nM

**Q.** Does GCGGUAGGAAGAAUUGGAAGCGC (ssRNA, 2'-F pyrimidines, 2'-OMe purines except 2'-OH G4, A6) bind (VEGF121)?
**A.** no binding

**Q.** And the Kd (VEGF165 [2])?
**A.** 0.067 nM

**Q.** Does GCGGUAGGAAGAAUUGGAAGCGC (ssRNA, 2'-F pyrimidines, 2'-OMe purines except 2'-OH G4, A6) bind (PlGF)?
**A.** no binding

**Q.** Does GCGAACCGAUGGAAUUUUUGGACGCUCGC (ssRNA, 2'-F pyrimidines, 2'-OMe purines except 2'-OH A5, G20) bind (VEGF121)?
**A.** no binding

**Q.** And the Kd (VEGF165 [3])?
**A.** 0.14 nM

**Q.** Does GCGAACCGAUGGAAUUUUUGGACGCUCGC (ssRNA, 2'-F pyrimidines, 2'-OMe purines except 2'-OH A5, G20) bind (PlGF)?
**A.** no binding

**Q.** Does CGGAAUCAGUGAAUGCUUAUACAUCCG (ssRNA, 2'-F pyrimidines, 2'-OMe purines except 2'-OH A4, A5) [t44-OMe] bind (VEGF121)?
**A.** no binding

**Q.** Does CGGAAUCAGUGAAUGCUUAUACAUCCG (ssRNA, 2'-F pyrimidines, 2'-OMe purines except 2'-OH A4, A5) [t44-OMe] bind (PlGF)?
**A.** no binding

**Q.** And the Kd (VEGF165 [4])?
**A.** > 100 nM

**Q.** What about the Kd (VEGF165 [5]) of the same binder?
**A.** 0.051 nM

**Q.** Does CGGAAUCAGUGAAUGCUUAUACAUCCG (ssRNA, 2'-F pyrimidines, 2'-OMe purines except 2'-OH A4, A5) [t44-OMe] bind (VEGF164 [6])?
**A.** binds

B2: VP30.29 (ssRNA)
RNA: GGGAGGACGAUGCGGCGCCACUUUGGAAGUUAUUGAAUUUCGCGUCAGACGACUCGCCCGA
modifications: 2'-F pyrimidines
**Q.** With B2 as the binder, how does the Kd (VEGF165 [7]) read?
**A.** 0.007 nM

**Q.** Does GCGGUAGGAAGAAUUGGAAGCGC (ssRNA, 2'-F pyrimidines; 2'-OMe purines except 2'-OH G4 and A6) bind (VEGF164 [8])?
**A.** binds

**Q.** Does GCGAACCGAUGGAAUUUUUGGACGCUCGC (ssRNA, 2'-F pyrimidines; 2'-OMe purines except 2'-OH A5 and G20) bind (VEGF164 [8])?
**A.** binds
